From patent US20260125472A1 (HEFEI TG IMMUNOPHARMA, published 2026)

Legend:
[1] = molecular target: T1, Trop2 protein (UniProt P09758 27-274); assay: ELISA, coated Trop2 protein, OD450
T1 construct: Bought recombinant protein; also called Trop2-Biotin protein (biotin-labelled, bridging ELISA)
T1 sequence (looked up): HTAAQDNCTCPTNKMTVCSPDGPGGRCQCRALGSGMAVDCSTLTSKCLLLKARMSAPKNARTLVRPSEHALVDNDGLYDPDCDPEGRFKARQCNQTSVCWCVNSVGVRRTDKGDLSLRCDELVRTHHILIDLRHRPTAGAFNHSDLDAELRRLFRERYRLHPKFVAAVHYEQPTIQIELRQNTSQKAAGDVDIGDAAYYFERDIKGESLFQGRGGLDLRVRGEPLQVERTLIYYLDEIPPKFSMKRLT
Method in brief: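 Plates coated overnight at 4° C with Trop2 at 2 μg/ml, blocked with PBS/10% BSA; serially diluted bispecifics bound 1 h at 37° C. Detection by HRP anti-human Fab secondary, TMB 3 min, acid stop, OD450.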

[2] = molecular target: T2, CD3E&D protein (UniProt P04234 22-105); assay: ELISA, coated CD3E&D protein, OD450
T2 construct: Purchased from Acro; also called CD3 E&D antigens; CD3E&D antigen protein
Excerpt: (§1) In this example, the binding properties of the CD3×Trop2 and CD3×PDL1 bispecific antibody (the production method and the amino acid sequences of the heavy and light chains were shown in Example 1) were detected by using ELISA. The CD3E&D, Trop2, or PDL1 protein was coated onto 96-well plates by inventors, and the strength of the signal after the addition of the antibody was used to determine the binding properties of the antibody and the corresponding protein.
(1) CD3E&D protein (purchased from Acro) was diluted to 2 μg/ml with PBS buffer, added to a 96-well plate at a volume of 100 μL/well, and placed at 4° C. overnight. The PBS buffer in the 96-well plate was aspirated, and the plate was washed 6 times with PBST (pH 7.2 PBS containing 0.1% Tween 20) buffer. Then, 200 μL/well PBS/10% BSA was added and incubated at 37° C. for 2 h for blocking. The blocking solution was removed, and the plate was washed 6 times with PBST. […] The absorbance was read at 450 nm using a microplate reader.

[3] = molecular target: T3, Trop2 on A-375-Trop2 melanoma cells (UniProt P09758 27-323, limits assumed); assay: flow cytometry, A-375-Trop2 cells, MFI [panel B]
T3 construct: whole, on cells
T3 sequence (looked up): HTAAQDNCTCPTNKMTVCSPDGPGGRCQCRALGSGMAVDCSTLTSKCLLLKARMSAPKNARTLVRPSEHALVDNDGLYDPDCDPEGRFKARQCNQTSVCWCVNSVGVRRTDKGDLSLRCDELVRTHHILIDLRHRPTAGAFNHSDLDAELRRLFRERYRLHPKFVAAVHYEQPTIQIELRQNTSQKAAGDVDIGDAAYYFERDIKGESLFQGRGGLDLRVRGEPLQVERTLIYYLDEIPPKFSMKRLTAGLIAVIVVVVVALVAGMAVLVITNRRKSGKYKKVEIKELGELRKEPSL
Method in brief: (§2)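 Cells were blocked with goat serum at 4° C for 30 min, then incubated with serially diluted bispecific antibodies or hIgG1LALA control at 4° C for 30 min. Bound antibody was detected with Alexa-647 anti-human IgG (4° C, 30 min, dark) and read by flow cytometry.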

[4] = molecular target: T4, PDL1 on A-375 melanoma cells, HCT-15 colorectal cancer cells and A549 lung cancer cells (UniProt Q9NZQ7 19-290, limits assumed); assay: flow cytometry, A549 cells, MFI [panel B]
T4 construct: whole, on cells
Method in brief: as §2

[5] = molecular target: T5, PDL1 protein (UniProt Q9NZQ7 19-238); assay: ELISA, coated PDL1 protein, OD450 [panel A]
T5 construct: Bought recombinant protein
Experimental: (§3) (3) PDL1 protein (purchased from Acro) was diluted to 2 μg/ml with PBS buffer, added to a 96-well plate at a volume of 100 μL/well, and placed at 4° C. overnight. The PBS buffer in the 96-well plate was aspirated, and the plate was washed 6 times with PBST (pH 7.2 PBS containing 0.10% Tween 20) buffer. Then, PBS/10% BSA was added at 200 μL/well and incubated at 37° C. for 2 h for blocking. The blocking solution was removed, and the plate was washed six times with PBST. Then, the to-be-tested bispecific antibodies serially diluted with PBST/0.05% BSA, Cross3×PDL1, Cross303×PDL1, Cross307×PDL1, Cross308×PDL1, Cross309×PDL1, Cross310×PDL1, Cross311×PDL1, Cross312×PDL1, Cross313×PDL1, Cross314×PDL1, Cross316×PDL1, Cross317×PDL1, Cross318×PDL1, Cross323×PDL1, Cross325×PDL1, Cross326×PDL1, and control IgG1LALA (purchased from Bio-Tech) were added at 100 μL/well, and incubated at 37° C. for 1 h. The reaction system was removed, and the plate was washed 6 times with PBST. Then, the cells were incubated at 37° C. for 1 h with HRP (horseradish peroxidase)-labeled anti-human secondary antibody (Fab specific) (purchased from Sigma) serially diluted with PBST/0.05% BSA at 100 μL/well. After the plate was washed six times with PBST, TMB (tetramethylbenzidine) was added at 80 μL/well and incubated at room temperature for 3 min. 4 M sulfuric acid was added at 80 μL/well to terminate the reaction. The absorbance was read at 450 nm using a microplate reader.

[6] = molecular target: T4, PDL1 on A-375 melanoma cells, HCT-15 …; assay: flow cytometry, A-375 cells, binding ratio % [panel A]
Experimental: (2) The tumor cells were diluted to 2×10⁶/ml with PBS and added to a 1.5 ml EP tube at a volume of 100 μl/tube, and goat serum was added thereto at 10 μl/tube. The cells were blocked at 4° C. for 30 min. The serially diluted bispecific antibodies, Cross3×Trop2, Cross303×Trop2, Cross307×Trop2, Cross308×Trop2, Cross309×Trop2, Cross310×Trop2, Cross311×Trop2, Cross312×Trop2, Cross313×Trop2, Cross314×Trop2, Cross316×Trop2, Cross317×Trop2, Cross318×Trop2, Cross323×Trop2, Cross325×Trop2, Cross326×Trop2, and Cross3×PDL1, Cross303×PDL1, Cross307×PDL1, Cross308×PDL1, Cross309×PDL1, Cross310×PDL1, Cross311×PDL1, Cross312×PDL1, Cross313×PDL1, Cross314×PDL1, Cross316×PDL1, Cross317×PDL1, Cross318×PDL1, Cross323×PDL1, Cross325×PDL1, Cross326×PDL1, and control hIgG1LALA (purchased from Bio-Tech) were added and incubated at 4° C. for 30 min. 1 ml of PBS was added to the EP tube, followed by centrifugation at 3500 rpm for 5 min at 4° C. The supernatant was discarded, and the cells were washed again with PBS. After centrifugation, the supernatant was completely discarded, and the cells were resuspended with PBS at 100 μl/tube. Alexa-647-labeled goat anti-human IgG secondary antibody (purchased from Jackson lab) was added at 1 μl/tube and incubated at 4° C. in the dark for 30 min. The cells were washed twice with PBS, and the supernatant was completely discarded after centrifugation. The cells were resuspended with PBS at 200 μl/tube and assay was performed using the flow cytometry.

[7] = molecular target: T5, PDL1 protein; assay: ELISA, coated PDL1 protein, OD450 [panel B]
Experimental: as §3

[8] = molecular target: T2, CD3E&D protein; assay: ELISA, coated CD3E&D protein, OD450 [panel B]
Excerpt: as §1
(1) CD3E&D protein (purchased from Acro) was diluted to 2 μg/ml with PBS buffer, added to a 96-well plate at a volume of 100 μL/well, and placed at 4° C. overnight. The PBS buffer in the 96-well plate was aspirated, and the plate was washed 6 times with PBST (pH 7.2 PBS containing 0.1% Tween 20) buffer. Then, 200 μL/well PBS/10% BSA was added and incubated at 37° C. for 2 h for blocking. The blocking solution was removed, and the plate was washed 6 times with PBST. Then, the to-be-tested bispecific antibodies serially diluted with PBST/0.05% BSA, Cross3×Trop2, Cross303×Trop2, Cross307×Trop2, Cross308×Trop2, Cross309×Trop2, Cross310×Trop2, Cross311×Trop2, Cross312×Trop2, Cross313×Trop2, Cross314×Trop2, Cross316×Trop2, Cross317×Trop2, Cross318×Trop2, Cross323×Trop2, Cross325×Trop2, Cross326×Trop2, Cross3×PDL1, Cross303×PDL1, Cross307×PDL1, Cross308×PDL1, Cross309×PDL1, Cross310×PDL1, Cross311×PDL1, Cross312×PDL1, Cross313×PDL1, Cross314×PDL1, Cross316×PDL1, Cross317×PDL1, Cross318×PDL1, Cross323×PDL1, Cross325×PDL1, Cross326×PDL1, and control IgG1LALA (purchased from Bio-Tech) were added at 100 μL/well, and incubated at 37° C. for 1 h. The reaction system was removed, and the plate was washed 6 times with PBST. Then, the cells were incubated at 37° C. for 1 h with HRP (horseradish peroxidase)-labeled anti-human secondary antibody (Fab specific) (purchased from Sigma) diluted with PBST/0.05% BSA at 100 μL/well. After the plate was washed six times with PBST, 80 μL/well TMB (tetramethylbenzidine) was added and incubated at room temperature for 3 min. […] The absorbance was read at 450 nm using a microplate reader.

[9] = molecular target: T6, CD3 on CD8 T cells (Homo sapiens (Human), UniProt P07766 23-207); assay: flow cytometry, CD8 T cells in PBMCs, binding ratio % [panel A]
T6 construct: Native CD3 complex on CD8 T cells among PBMCs; also called T cells (PBMCs gated with anti-human CD8 antibody)
Experimental: (1) PBMCs were diluted to 2×10⁶/ml with PBS and added to a 1.5 ml EP tube at 100 μl/tube, goat serum was added thereto at 10 μl/tube. The cells were blocked at 4° C. for 30 min. The serially diluted bispecific antibodies, Cross3×Trop2, Cross303×Trop2, Cross307×Trop2, Cross308×Trop2, Cross309×Trop2, Cross310×Trop2, Cross311×Trop2, Cross312×Trop2, Cross313×Trop2, Cross314×Trop2, Cross316×Trop2, Cross317×Trop2, Cross318×Trop2, Cross323×Trop2, Cross325×Trop2, Cross326×Trop2, Cross3×PDL1, Cross313×PDL1, Cross316×PDL1, Cross325×PDL1, and control hIgG1LALA (purchased from Bio-Tech) were added and incubated at 4° C. for 30 min. 1 ml of PBS was added to the EP tube, followed by centrifugation at 3500 rpm for 5 min at 4° C. The supernatant was discarded, and the system was washed again with PBS. After centrifugation, the supernatant was discarded, and the cells were resuspended with PBS at 100 μl/tube. 1 μl/tube Alexa-647-labeled goat anti-human IgG secondary antibody (purchased from Jackson lab) and 0.5 μl/tube PerCP-Cy5.5-labeled anti-human CD8 antibody were added and incubated at 4° C. in the dark for 30 min. The cells were washed twice with PBS. After centrifugation, the supernatant was discarded. The cells were resuspended with 200 μl/tube of PBS and assay is performed by flow cytometry.

T4 sequence (Q9NZQ7 19-290 limits assumed): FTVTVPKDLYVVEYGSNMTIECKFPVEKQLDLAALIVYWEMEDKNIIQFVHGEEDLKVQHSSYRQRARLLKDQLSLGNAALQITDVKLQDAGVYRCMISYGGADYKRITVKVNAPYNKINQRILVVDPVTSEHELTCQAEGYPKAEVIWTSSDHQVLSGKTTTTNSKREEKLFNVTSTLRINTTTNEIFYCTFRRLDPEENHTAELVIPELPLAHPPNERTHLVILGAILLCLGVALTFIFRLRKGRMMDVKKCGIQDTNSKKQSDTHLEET
T5 sequence (Q9NZQ7 19-238 limits assumed): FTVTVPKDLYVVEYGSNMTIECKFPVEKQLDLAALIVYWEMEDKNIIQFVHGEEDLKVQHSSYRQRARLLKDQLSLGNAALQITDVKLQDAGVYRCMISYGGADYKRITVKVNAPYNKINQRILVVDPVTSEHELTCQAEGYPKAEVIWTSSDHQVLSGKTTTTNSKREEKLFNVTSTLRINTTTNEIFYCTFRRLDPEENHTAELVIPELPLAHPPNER
T2 sequence (chain, as listed by the source limits assumed, chain 1 of 2): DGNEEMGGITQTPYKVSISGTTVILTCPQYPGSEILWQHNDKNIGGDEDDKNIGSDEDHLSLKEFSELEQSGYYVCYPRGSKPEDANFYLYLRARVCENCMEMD
T2 sequence (P04234 22-105 limits assumed, chain 2 of 2): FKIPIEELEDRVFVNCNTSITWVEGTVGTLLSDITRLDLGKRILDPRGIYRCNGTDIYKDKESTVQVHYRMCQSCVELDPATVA
T6 sequence (P07766 23-207 limits assumed): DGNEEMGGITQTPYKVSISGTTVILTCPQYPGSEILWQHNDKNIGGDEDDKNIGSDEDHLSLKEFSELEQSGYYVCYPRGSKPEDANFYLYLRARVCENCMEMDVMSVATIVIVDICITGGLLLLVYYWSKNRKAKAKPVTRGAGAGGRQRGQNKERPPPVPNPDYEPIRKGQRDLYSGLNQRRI

B1: Cross317×Trop2 (bispecific antibody)
scFv: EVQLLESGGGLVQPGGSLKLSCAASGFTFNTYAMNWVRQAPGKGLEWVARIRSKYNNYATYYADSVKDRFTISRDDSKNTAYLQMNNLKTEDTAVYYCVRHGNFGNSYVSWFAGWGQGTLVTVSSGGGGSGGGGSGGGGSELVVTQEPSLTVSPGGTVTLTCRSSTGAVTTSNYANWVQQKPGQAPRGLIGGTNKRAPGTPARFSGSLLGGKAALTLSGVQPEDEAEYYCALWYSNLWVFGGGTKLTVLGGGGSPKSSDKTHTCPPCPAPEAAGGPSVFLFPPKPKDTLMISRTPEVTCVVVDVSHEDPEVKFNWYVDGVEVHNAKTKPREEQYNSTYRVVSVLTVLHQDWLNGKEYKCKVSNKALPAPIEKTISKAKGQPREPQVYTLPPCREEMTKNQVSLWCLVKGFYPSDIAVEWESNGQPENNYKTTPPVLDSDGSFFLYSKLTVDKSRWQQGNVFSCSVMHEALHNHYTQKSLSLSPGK
heavy: QVQLQQSGSELKKPGASVKVSCKASGYTFTNYGMNWVKQAPGQGLKWMGWINTYTGEPTYTDDFKGRFAFSLDTSVSTAYLQISSLKADDTAVYFCARGGFGSSYWYFDVWGQGSLVTVSSASTKGPSVFPLAPSSKSTSGGTAALGCLVKDYFPEPVTVSWNSGALTSGVHTFPAVLQSSGLYSLSSVVTVPSSSLGTQTYICNVNHKPSNTKVDKKVEPKSSDKTHTCPPCPAPEAAGGPSVFLFPPKPKDTLMISRTPEVTCVVVDVSHEDPEVKFNWYVDGVEVHNAKTKPREEQYNSTYRVVSVLTVLHQDWLNGKEYKCKVSNKALPAPIEKTISKAKGQPREPQVCTLPPSREEMTKNQVSLSCAVKGFYPSDIAVEWESNGQPENNYKTTPPVLDSDGSFFLVSKLTVDKSRWQQGNVFSCSVMHEALHNHYTQKSLSLSPGK
light: DIQLTQSPSSLSASVGDRVSITCKASQDVSIAVAWYQQKPGKAPKLLIYSASYRYTGVPDRFSGSGSGTDFTLTISSLQPEDFAVYYCQQHYITPLTFGAGTKVEIKRTVAAPSVFIFPPSDEQLKSGTASVVCLLNNFYPREAKVQWKVDNALQSGNSQESVTEQDSKDSTYSLSSTLTLSKADYEKHKVYACEVTHQGLSSPVTKSFNRGEC
EC50 (read off the curve) [1]: ~8 ng/mL | EC50 (read off the curve) [2]: ~1000 ng/mL | EC50 (read off the curve) [3]: ~1 µg/mL

B2: Cross309×PDL1 (bispecific antibody, human IgG1, kappa, L234A L235A)
scFv: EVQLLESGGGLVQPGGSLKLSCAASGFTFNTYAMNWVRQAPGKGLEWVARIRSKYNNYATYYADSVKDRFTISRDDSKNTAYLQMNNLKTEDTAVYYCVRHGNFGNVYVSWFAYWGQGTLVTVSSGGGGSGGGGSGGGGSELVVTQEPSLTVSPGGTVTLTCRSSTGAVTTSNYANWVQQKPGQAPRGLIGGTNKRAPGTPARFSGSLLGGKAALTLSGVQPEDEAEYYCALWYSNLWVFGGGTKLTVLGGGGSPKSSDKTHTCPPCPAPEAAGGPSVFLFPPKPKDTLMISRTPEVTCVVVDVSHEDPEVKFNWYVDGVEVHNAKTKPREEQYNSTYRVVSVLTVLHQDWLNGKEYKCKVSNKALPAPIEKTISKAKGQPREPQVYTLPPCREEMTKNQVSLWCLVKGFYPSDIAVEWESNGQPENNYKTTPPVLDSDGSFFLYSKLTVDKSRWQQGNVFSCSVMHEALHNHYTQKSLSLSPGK
heavy: QVQLVQSGAEVKKPGASVKVSCKASGYSFTGYYMHWVRQAPGQGLEWIGRINPYNGATTYSQNFKDRATMTVDTSISTAYMELSRLRSDDTAVYYCVPTGMGYFLMDYWGQGTLVTVSSASTKGPSVFPLAPSSKSTSGGTAALGCLVKDYFPEPVTVSWNSGALTSGVHTFPAVLQSSGLYSLSSVVTVPSSSLGTQTYICNVNHKPSNTKVDKKVEPKSCDKTHTCPPCPAPEAAGGPSVFLFPPKPKDTLMISRTPEVTCVVVDVSHEDPEVKFNWYVDGVEVHNAKTKPREEQYNSTYRVVSVLTVLHQDWLNGKEYKCKVSNKALPAPIEKTISKAKGQPREPQVCTLPPSREEMTKNQVSLSCAVKGFYPSDIAVEWESNGQPENNYKTTPPVLDSDGSFFLVSKLTVDKSRWQQGNVFSCSVMHEALHNHYTQKSLSLSPGK
light: DIQLTQSPSFLSASVGDRVTITCKASQDVGSAVVWYQQKPGKAPKLLIYWASTRHTGVPSRFSGSGSGTEFTLTISSLQPEDFATYFCQQFTSYPTFGQGTKLEIKRTVAAPSVFIFPPSDEQLKSGTASVVCLLNNFYPREAKVQWKVDNALQSGNSQESVTEQDSKDSTYSLSSTLTLSKADYEKHKVYACEVTHQGLSSPVTKSFNRGEC
EC50 (read off the curve) [4]: ~1 µg/mL | EC50 (read off the curve) [5]: ~200 ng/mL | EC50 (read off the curve) [6]: ~0.4 µg/mL

B3: Cross325×PDL1 (bispecific antibody, human IgG1, kappa, L234A L235A)
scFv: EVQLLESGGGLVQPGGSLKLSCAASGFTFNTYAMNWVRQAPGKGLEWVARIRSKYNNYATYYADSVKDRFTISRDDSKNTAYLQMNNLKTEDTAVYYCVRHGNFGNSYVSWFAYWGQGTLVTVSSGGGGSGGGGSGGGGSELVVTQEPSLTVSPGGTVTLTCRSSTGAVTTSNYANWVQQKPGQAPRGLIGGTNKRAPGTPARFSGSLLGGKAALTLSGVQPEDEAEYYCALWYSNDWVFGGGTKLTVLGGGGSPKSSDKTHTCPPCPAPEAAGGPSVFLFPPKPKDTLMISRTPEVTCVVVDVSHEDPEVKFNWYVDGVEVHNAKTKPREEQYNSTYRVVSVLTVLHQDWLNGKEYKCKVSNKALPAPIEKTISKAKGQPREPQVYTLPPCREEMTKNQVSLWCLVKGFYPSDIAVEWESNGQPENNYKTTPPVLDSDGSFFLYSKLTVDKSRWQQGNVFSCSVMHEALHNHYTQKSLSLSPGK
heavy: B2 heavy
light: B2 light
EC50 (read off the curve) [4]: ~1 µg/mL | EC50 (read off the curve) [7]: ~100 ng/mL | EC50 (read off the curve) [8]: ~700 ng/mL | EC50 (read off the curve) [9]: ~0.4 µg/mL
